US20130280298A1 (FOLIA BIOTECH, published 2013)

Experiments:
[1] = target: T1, influenza A/WSN/33 (H1N1) NP protein (influenza virus A/WSN/33 (H1N1), UniProt P15682 1-498)
[2] = target: T1, influenza A/WSN/33 (H1N1) NP protein; assay: phage display panning (Ph.D.-7) on NP coated on MaxiSorp plates, 5 rounds

T1 sequence (P15682 whole entry): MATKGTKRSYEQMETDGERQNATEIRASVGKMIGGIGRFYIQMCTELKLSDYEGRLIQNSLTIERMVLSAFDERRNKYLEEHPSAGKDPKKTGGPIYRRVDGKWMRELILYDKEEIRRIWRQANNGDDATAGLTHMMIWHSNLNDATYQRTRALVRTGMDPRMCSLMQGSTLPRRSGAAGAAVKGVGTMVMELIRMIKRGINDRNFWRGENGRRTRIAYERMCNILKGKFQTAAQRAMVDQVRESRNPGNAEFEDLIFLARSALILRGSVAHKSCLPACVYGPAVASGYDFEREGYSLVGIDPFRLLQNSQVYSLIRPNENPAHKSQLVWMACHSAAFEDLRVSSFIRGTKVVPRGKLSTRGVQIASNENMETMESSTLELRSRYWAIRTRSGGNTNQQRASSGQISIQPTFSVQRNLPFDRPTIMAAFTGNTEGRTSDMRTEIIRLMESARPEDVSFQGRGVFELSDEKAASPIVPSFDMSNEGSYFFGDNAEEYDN

B1: PapMV HAV-ANP2 (designed binder)
chain: MASTPNIAFPAITQEQMSSIKVDPTSNLLPSQEQLKSVSTLMVAAKVPAASVTTVALELVNFCYDNGSSAYTTVTGPSSIPEISLAQLASIVKASGTSLRKFCRYFAPIIWNLRTDKMAPANWEASGYKPSAKFAAFDFFDGVENPAAMQPPSGLTRSPTQEERIANATNKQVHLFQAAAQDNNFASNSAFITKGQISGSTPTIQFLPPPETSKVWQIPHTRHHHHHH
fold increase of the avidity (OPD, nm) over HAV-ANP 1 and PapMV VLPs [1]: ~5 fold
fold increase of the signal over PapMV HAV-ANP1 and PapMV VLPs [1]: 5 fold

FHEFWPT (also called ANP1)
binding result [2]: binds
